In the RNAGym collection of RNA variant scans (doi:10.1093/molbev/msab373):

B1: Azoarcus group I ribozyme (parent)
chain: GUGCCUUGCGCCGGGAAACCACGCAAGGGAUGGUGUCAAAUUCGGCGAAACCUAAGCGCCCGCCCGGGCGUAUGGCAACGCCGAGCCAAGCUUCGGCGCCUGCGCCGAUGAAGGUGUAGAGACUAGACGGCACCCACCUAAGGCAAACGCUAUGGUGAAGGCAUAGUCCAGGGAGUGGCGAAAGUCACACAAACCGG

Variants of: B1
Assay: reverse-splicing fitness (ratio to wild type); higher = more active; in vitro selection; Mg2+ level not given
Method in brief: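 An in vitro group I ribozyme library with randomized positions was T7-transcribed and gel-purified. In triplicate, 10 pmol RNA in EPPS pH 7.5 was reacted with 50 pmoles of a 30-nt RNA substrate for 1 h at 37 °C across several added MgCl2 levels (1–48 mM), then stopped with EDTA. Products were reverse transcribed from a substrate-complementary primer, PCR-amplified and sequenced (HiSeq 4000). Fitness is a variant's read proportion after selection over that before, normalised to wild type.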

First: C82A A111U A120U C169G U176C
Second: C82A A111U A120U C169G U176G
The reverse-splicing fitness of the first is higher: 0.00453 for the first, 0.00236 for the second.

Compared with C82A A111U A120U C169G U176A, C82A A111U A145C U176G is higher in reverse-splicing fitness: 0.00417 for the first, 0.0253 for the second.

First: C82A A111U A145C U176A
Second: C82A A111U A145C U176C
The reverse-splicing fitness of the first is lower: 0.0948 for the first, 0.126 for the second.

Compared with C82A A111U A120U C150A C169A U176C, C82A A111U A120U C150A C169A U176A is higher in reverse-splicing fitness: 0.00509 for the first, 0.00679 for the second.

First: C82A A111U A120U C150A C169A U176G
Second: C82A A111U A120U A145C C150U C169G U176A
The reverse-splicing fitness of the first is lower: 0.00306 for the first, 0.00366 for the second.

Compared with C82A A111U A120U A145C C150U C169G U176G, C82A A111U A120U A145C C150U C169G U176C is higher in reverse-splicing fitness: 0.00248 for the first, 0.00274 for the second.

Compared with C82A A111U A145C C150A C169U U176G, C82A A111U A145C C150A C169U U176C is higher in reverse-splicing fitness: 0.00705 for the first, 0.0116 for the second.

Compared with C82A A111U A145C C150A C169U U176A, C82A A111U A120U A145C C150U U176G is lower in reverse-splicing fitness: 0.0155 for the first, 0.00319 for the second.

Compared with C82A A111U A120U A145C C150U U176C, C82A A111U A120U A145C C150U U176A is lower in reverse-splicing fitness: 0.00533 for the first, 0.00482 for the second.

Compared with C82A A111U A120U A145U C169A U176A, C82A A111U A120U A145U C169A U176G is lower in reverse-splicing fitness: 0.00283 for the first, 0.00222 for the second.

Going from C82A A111U A120U A145U C169A U176C to C82A A111U A145C C150A C169A U176G, the reverse-splicing fitness rises from 0.00197 to 0.00855.

Going from C82A A111U A145C C150A C169A U176A to C82A A111U A145C C150A C169A U176C, the reverse-splicing fitness falls from 0.0149 to 0.00757.

Compared with C82A A111U A120U U176G, C82A A111U A120U U176A is higher in reverse-splicing fitness: 0.00275 for the first, 0.00842 for the second.

First: C82A A111U A120U U176C
Second: C82A A111U A120U A145U C150G C169G U176G
The reverse-splicing fitness of the first is higher: 0.0105 for the first, 0.00241 for the second.

First: C82A A111U A120U A145U C150G C169G U176C
Second: C82A A111U A120U A145U C150G C169G U176A
The reverse-splicing fitness of the first is lower: 0.00281 for the first, 0.00327 for the second.

First: C82A A111U A145C C169U U176G
Second: C82A A111U A145C C169U U176A
The reverse-splicing fitness of the first is lower: 0.00582 for the first, 0.016 for the second.

Compared with C82A A111U A145C C169U U176C, C82A A111U A120U A145C C150G C169U U176C is lower in reverse-splicing fitness: 0.0102 for the first, 0.00285 for the second.

First: C82A A111U A120U A145C C150G C169U U176A
Second: C82A A111U A120U A145C C150G C169U U176G
The reverse-splicing fitness of the first is higher: 0.00314 for the first, 0.00301 for the second.

First: C82A A111U A120U C169G
Second: C82A A111U A120U C169U
The reverse-splicing fitness of the first is lower: 0.00434 for the first, 0.00502 for the second.

Compared with C82A A111U A120U C169A, C82A A111U A120U C150G U176A is higher in reverse-splicing fitness: 0.00416 for the first, 0.00499 for the second.

Compared with C82A A111U A120U C150G U176G, C82A A111U A120U C150G U176C is higher in reverse-splicing fitness: 0.00265 for the first, 0.00606 for the second.

Compared with C82A A111U A120G C169U U176A, C82A A111U A120G C169U U176G is lower in reverse-splicing fitness: 0.0201 for the first, 0.00615 for the second.

Going from C82A A111U A120G C169U U176C to C82A A111U A120U A145C C150G U176A, the reverse-splicing fitness falls from 0.0195 to 0.00326.

Going from C82A A111U A120U A145C C150G U176C to C82A A111U A120U A145C C150G U176G, the reverse-splicing fitness falls from 0.00415 to 0.00265.

Going from C82A A111U A120U C150A C169G U176C to C82A A111U A120U C150A C169G U176G, the reverse-splicing fitness falls from 0.00511 to 0.00222.

Compared with C82A A111U A120U C150A C169G U176A, C82A A111U A120U A145G C150A C169U U176G is lower in reverse-splicing fitness: 0.00956 for the first, 0.00326 for the second.

Going from C82A A111U A120U A145G C150A C169U U176A to C82A A111U A120U A145G C150A C169U U176C, the reverse-splicing fitness falls from 0.00626 to 0.00543.

Compared with C82A A111U A120U C169U U176A, C82A A111U A120U C169U U176C is lower in reverse-splicing fitness: 0.00519 for the first, 0.00461 for the second.

Compared with C82A A111U A120U C169U U176G, C82A A111U A120U A145G C150U U176G is higher in reverse-splicing fitness: 0.00228 for the first, 0.00393 for the second.

Compared with C82A A111U A120U A145G C150U U176A, C82A A111U A120U A145G C150U U176C is higher in reverse-splicing fitness: 0.01 for the first, 0.0125 for the second.

Going from C82A A111U A120U A145C C150A U176C to C82A A111U A120U A145C C150A U176G, the reverse-splicing fitness falls from 0.00426 to 0.00255.

First: C82A A111U A120U A145C C150A U176A
Second: C82A A111U A120U A145G C169G
The reverse-splicing fitness of the first is lower: 0.00368 for the first, 0.00467 for the second.

Compared with C82A A111U A120U A145G C169A, C82A A111U A120U A145G C169U is higher in reverse-splicing fitness: 0.0037 for the first, 0.00488 for the second.

Compared with C82A A111U A120U C150U C169G U176A, C82A A111U A120U C150U C169G U176C is lower in reverse-splicing fitness: 0.00965 for the first, 0.00496 for the second.

Compared with C82A A111U A120U C150U C169G U176G, C82A A111U A120U A145U is higher in reverse-splicing fitness: 0.00271 for the first, 0.0216 for the second.

Compared with C82A A111U A120U A145C, C82A A111U A120U A145G is higher in reverse-splicing fitness: 0.0205 for the first, 0.0209 for the second.

Compared with C82A A111U A145C C150G C169G, C82A A111U A145C C150G C169U is higher in reverse-splicing fitness: 0.00746 for the first, 0.00999 for the second.

Compared with C82A A111U A145C C150G C169A, C82A A111U A145C C150A is higher in reverse-splicing fitness: 0.00825 for the first, 0.0156 for the second.

Going from C82A A111U A145C C150G to C82A A111U A145C C150U, the reverse-splicing fitness rises from 0.0267 to 0.0537.

Going from C82A A111U A145G to C82A A111U A145C, the reverse-splicing fitness falls from 0.313 to 0.28.

Compared with C82A A111U A120U A145U C150A C169G U176C, C82A A111U A120U A145U C150A C169G U176G is lower in reverse-splicing fitness: 0.00291 for the first, 0.00203 for the second.

C82A A111U A120U A145U C150A C169G U176A gave a reverse-splicing fitness of 0.00333.
